Measured values taken from article doi:10.1101/2025.11.27.691040 (bioRxiv, 2025).

Biological target: T1, AtCKA1 (residues 76-409) with C-terminal 6xHis tag (Arabidopsis thaliana, UniProt Q08467 76-409)
T1 sequence (looked up): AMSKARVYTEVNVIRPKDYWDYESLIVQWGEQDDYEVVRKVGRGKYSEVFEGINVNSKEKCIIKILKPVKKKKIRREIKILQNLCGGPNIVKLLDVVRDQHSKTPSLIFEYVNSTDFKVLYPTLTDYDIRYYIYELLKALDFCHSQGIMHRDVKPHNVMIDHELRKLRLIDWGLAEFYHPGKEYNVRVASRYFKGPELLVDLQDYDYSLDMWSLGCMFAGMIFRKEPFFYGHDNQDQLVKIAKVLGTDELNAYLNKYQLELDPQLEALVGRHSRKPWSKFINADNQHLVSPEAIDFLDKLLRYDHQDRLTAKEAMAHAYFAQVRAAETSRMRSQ
Experiment: SEC-MALS

stoichiometry N: 1 β per α (2:2, α2β2)
B1: AtCKB1 (residues 95-287), untagged (domain or fragment, Arabidopsis thaliana, UniProt P40228 95-287, looked up)
chain: DGEDTSWISWFCNLRGNEFFCEVDDDYIQDDFNLCGLSSLVPYYEYALDLILDVESSQGEMFTEEQNELIESAAEMLYGLIHARYILTSKGLAAMLDKYKNYDFGRCPRVYCCGQPCLPVGQSDLPRSSTVKIYCPKCEDIYYPRSKYQGNIDGAYFGTTFPHLFLMTYGHLKPAKATQNYVQRVFGFKLHKP
